PMC10783636, “Chlorophyll biosynthesis under the control of arginine metabolism” (Cell Reports, 2023)

Tests used:
[1] = molecular target: 3×FLAG-tagged ArgD (N-acetylornithine aminotransferase) of Synechocystis sp. PCC 6803 (Synechocystis sp. PCC 6803) (UniProt P73133); assay: co-IP; f.ArgD from Synechocystis cells grown with 18 mM nitrate without or with Orn (1 mM for 24 h; 100 μM for 1 h); proteins released from the anti-FLAG resin with 1% SDS instead of FLAG peptide; western blot; WT control
[2] = molecular target: 3×FLAG-tagged ArgD (N-acetylornithine aminotransferase) of Synechocystis sp. PCC 6803 (Synechocystis sp. PCC 6803) (UniProt P73133); assay: co-IP; f.ArgD or f.AstC purified from the soluble fraction of Synechocystis strains (ΔargD or ΔcphB background; cells with nitrate, without or with 1 mM Orn for 24 h) on anti-FLAG M2 gel, eluted with 3xFLAG peptide; SDS-PAGE, stained, blotted and probed with anti-Gun4 and anti-CphB
[3] = molecular target: ArgD-6xHis, recombinant Synechocystis ArgD (Synechocystis sp. PCC 6803) (UniProt P73133); assay: isothermal spectral shift assay; 5 nM labeled ArgD or 20 nM labeled Gun4 (Red NHS dye) titrated with a serial dilution of the unlabelled partner; 25 mM Tris, 0.1% Pluronic F-127, pH 8, 25°C; Monolith X; triplicate
[4] = molecular target: Gun4-6xHis, recombinant Synechocystis Gun4 (Synechocystis sp. PCC 6803); assay: as above
[5] = molecular target: T1, ArgD-6xHis, recombinant Synechocystis ArgD (Synechocystis sp. PCC 6803, UniProt P73133 1-429, 2nd Generation Red NHS dye); assay: as above; conditions: both partners purified
T1 construct: N-acetylornithine aminotransferase ArgD, Synechocystis sp; PCC 6803, gene slr1022; the recombinant protein produced in E. coli is called full-length where the antibodies are described; Construct pET21a-argD; also called labeled ArgD; source: E. coli BL21 (DE3), pET21a, purified (Ni-NTA); not shown: His6, C-terminal, kept
T1 sequence (looked up): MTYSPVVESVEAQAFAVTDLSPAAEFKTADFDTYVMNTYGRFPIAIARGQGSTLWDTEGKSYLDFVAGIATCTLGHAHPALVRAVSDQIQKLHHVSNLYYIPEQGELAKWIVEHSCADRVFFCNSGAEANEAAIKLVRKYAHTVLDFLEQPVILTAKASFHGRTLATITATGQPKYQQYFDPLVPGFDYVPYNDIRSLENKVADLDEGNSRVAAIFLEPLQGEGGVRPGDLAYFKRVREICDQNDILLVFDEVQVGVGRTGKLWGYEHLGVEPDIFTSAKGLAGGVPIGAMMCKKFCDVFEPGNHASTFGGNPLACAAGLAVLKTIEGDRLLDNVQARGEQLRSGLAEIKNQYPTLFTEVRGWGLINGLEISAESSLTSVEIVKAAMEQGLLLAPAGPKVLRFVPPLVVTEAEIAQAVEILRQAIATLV

[6] = molecular target: the molecule itself; assay: native gel or EMSA; 2D blue native/SDS-PAGE of the f.ArgD anti-FLAG eluate; apparent mass on the BN gel

Gun4 protein of Synechocystis sp. PCC 6803 (native) (natural protein)
fold enrichment of Gun4 in the f.ArgD pull-down (Orn-treated cells against control) [1]: > 12 ×
fold increase of f.ArgD-co-purified Gun4 (1 h feeding with 100 μM Orn against control) [1]: 6 times
fold more Gun4 co-purified with f.ArgD (cells with 1 mM Orn for 24 h against cells without Orn) [2]: 6 times

Gun4-6xHis, recombinant Synechocystis Gun4 (natural protein)
Kd [3]: 55.8 nM

B1: CphB-6xHis, recombinant Synechocystis CphB (enzyme, Synechocystis sp. PCC 6803, UniProt P73832 1-271, looked up)
chain: MPLSSQPAILIIGGAEDKVHGREILQTFWSRSGGNDAIIGIIPSASREPLLIGERYQTIFSDMGVKELKVLDIRDRAQGDDSGYRLFVEQCTGIFMTGGDQLRLCGLLADTPLMDRIRQRVHNGEISLAGTSAGAAVMGHHMIAGGSSGEWPNRALVDMAVGLGIVPEIVVDQHFHNRNRMARLLSAISTHPELLGLGIDEDTCAMFERDGSVKVIGQGTVSFVDARDMSYTNAALVGANAPLSLHNLRLNILVHGEVYHQVKQRAFPRVT
notes: cyanophycinase CphB, Synechocystis sp; PCC 6803, gene slr2001; the recombinant protein produced in E. coli is called full-length where the antibodies are described; Construct pET21a-cphB; source: E. coli BL21 (DE3), pET21a, purified (Ni-NTA); not shown: His6, C-terminal, kept
Kd [4]: 2160 nM
Kd [5]: 29800 ± 960 nM

B2: cyanophycinase CphB of Synechocystis sp. PCC 6803 (native) (enzyme, UniProt P73832 1-271, looked up)
chain: MPLSSQPAILIIGGAEDKVHGREILQTFWSRSGGNDAIIGIIPSASREPLLIGERYQTIFSDMGVKELKVLDIRDRAQGDDSGYRLFVEQCTGIFMTGGDQLRLCGLLADTPLMDRIRQRVHNGEISLAGTSAGAAVMGHHMIAGGSSGEWPNRALVDMAVGLGIVPEIVVDQHFHNRNRMARLLSAISTHPELLGLGIDEDTCAMFERDGSVKVIGQGTVSFVDARDMSYTNAALVGANAPLSLHNLRLNILVHGEVYHQVKQRAFPRVT
notes: cyanophycinase CphB, Synechocystis sp; PCC 6803, gene slr2001; printed as 29.4 kDa; Migrated like a large oligomer (>200 kDa) on the BN gel; source: endogenous, Synechocystis soluble fraction
binding result [6]: binds

B3: 3×FLAG-tagged ArgD (N-acetylornithine aminotransferase) of Synechocystis sp. PCC 6803 (enzyme, UniProt P73133 1-429, looked up)
chain: MTYSPVVESVEAQAFAVTDLSPAAEFKTADFDTYVMNTYGRFPIAIARGQGSTLWDTEGKSYLDFVAGIATCTLGHAHPALVRAVSDQIQKLHHVSNLYYIPEQGELAKWIVEHSCADRVFFCNSGAEANEAAIKLVRKYAHTVLDFLEQPVILTAKASFHGRTLATITATGQPKYQQYFDPLVPGFDYVPYNDIRSLENKVADLDEGNSRVAAIFLEPLQGEGGVRPGDLAYFKRVREICDQNDILLVFDEVQVGVGRTGKLWGYEHLGVEPDIFTSAKGLAGGVPIGAMMCKKFCDVFEPGNHASTFGGNPLACAAGLAVLKTIEGDRLLDNVQARGEQLRSGLAEIKNQYPTLFTEVRGWGLINGLEISAESSLTSVEIVKAAMEQGLLLAPAGPKVLRFVPPLVVTEAEIAQAVEILRQAIATLV
notes: N-acetylornithine aminotransferase ArgD, Synechocystis sp; PCC 6803, gene slr1022; synthetic argD gene with optimised codon usage cloned into pPD-NFLAG; f.ArgD printed as 49.8 kDa; also called f.ArgD; source: Synechocystis f.argD+/ΔargD or f.argD+/ΔcphB strain (psbAII promoter), soluble fraction; not shown: 3xFLAG, N-terminal, kept
stoichiometry N [6]: 2
